From doi:10.1101/798769 (bioRxiv, 2019) come the findings set out here.

For assay [1], the target named is complete C-terminus of PfCSP (C-CSP) (Plasmodium falciparum NF54, UniProt P19597). Briefly: SPR. For orientation: SPR reads the build-up and loss of mass on a sensor chip optically.
Assay [2] deals with T1, NANP trimer peptide (NANP3) (Plasmodium falciparum).
T1 chain: NANPNANPNANP
Description: ITC. A general note: In ITC the heat of successive injections is recorded.

The next assay addresses T2, NDN3 peptide (Plasmodium falciparum).
T2 chain: NANPNVDPNANP
Briefly: ITC.

Another assay has as its target T3, DND3 peptide (Plasmodium falciparum).
T3 chain: NVDPNANPNVDP
Briefly: ITC.

Assay [3] has as its target T4, NPDP peptide (PfCSP aa 101-116) (Plasmodium falciparum NF54).
T4 chain: NPDPNANPNVDPNANP
Briefly: SPR.

Assay [4] deals with T5, NANP 5.5-mer peptide, NP(NANP)5 (Plasmodium falciparum).
T5 chain: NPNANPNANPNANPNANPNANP
Description: SPR.

For assay [5], the target named is NVDP peptide (PfCSP aa 109-125) (Plasmodium falciparum NF54, UniProt P19597). Description: SPR.
Assay [6] deals with T6, KQPA peptide (PfCSP aa 95-109) (Plasmodium falciparum NF54).
T6 chain: KQPADGNPDPNANPN
Briefly: SPR.

For assay [7], the target named is T7, NANP pentamer peptide (NANP5) (Plasmodium falciparum (NF54)).
T7 chain: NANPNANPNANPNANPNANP
Description: crystal structure.

Chain of NVDP peptide (PfCSP aa 109-125) (P19597 109-128): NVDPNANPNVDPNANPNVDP

B1: mAb 3246 (recombinant human IgG1, kappa) (antibody, V domains shown)
VH: QVQLVESGGGVVQPGRSLRLSCAASGFTFSGSGMHWVRQAPGKGLEWVAIIWYDGSNKFYADSVKGRFTISRDNSKNTLYLQMNSLRGEDTAVYYCARVGDGDGNYMDVWGKGTTVTVSS
VL: not shown
With B1, in assay [1], the binding result is listed as “binds”.

B2: Fab fragment of mAb 4498 (Fab, V domains shown)
VH: QVQLVESGGGVVQPGRSLRLSCAASGFTFSIYGMHWVRQAPGKGLEWVALIWYDGTNKYYTDSVKGRFTISRDNSKNTLFLQMNSVRAEDTAVYYCARDAHYSDSSGYSSWGYFDYWGQGSLVTVSS
VL: EIVLTQSPATLSLSPGERATLSCRASQSVSSYLAWYQQKPGQAPRLLIFDASIRATGIPARFSGSGSGTDFTLTISSLEPEDFAVYYCQQRSNWYTFGQGTKLEIK
With B2, the binding result (in assay [2]; with NDN3 peptide; in the assay with DND3 peptide) was “binds” throughout.

B3: mAb 4498 (recombinant human IgG1, kappa) (antibody, V domains shown)
VH: B2 VH
VL: B2 VL
Consider B3, for which the binding result in [3], in assay [4] and in [5] was “binds” in each case.

B4: mAb 2541 (recombinant human IgG1, kappa) (antibody, V domains shown)
VH: QVQLVESGGGVVQPGRSLRLSCAASGFTFSSYGMHWVRQTTGKGLEWVAIIWHDGSKKYYADSVKGRLTISRDNSKNTLYLQMNSLRVEDTALYYCARVGDYSDFKYGAFDIWGQGTMVTVSS
VL: DIQMTQSPSTLSASVGDRVTITCRASQSISSWLAWYQQKPGKAPNLLIYKASTLESGVPSRFSGSGSGTEFTLTISSLQPDDFATYYCQQYNSYWTFGQGTRVEIK
Regarding B4, the binding result in [3], in assay [6] and in assay [4] was “binds” throughout.

B5: Fab fragment of mAb 2541 (Fab, V domains shown)
VH: B4 VH
VL: B4 VL
Take B5: the binding result in assay [2] is reported as “binds”; with NDN3 peptide it was “no binding”; in assay [7], “binds”.
